From patent US7511119B2, “PRAME peptide analogues” (MannKind Corporation, priority 2005, dated 2009)
Like-named read-outs stand apart in the source and are kept apart here. One block for each molecule: values may come before it. Numbered stars: 1 amine (or outer) side, 2 acyl side, 3 side chain; on linkers, the order of the positions; unused ones are H or OH. Square brackets hold non-standard residues; d marks the D form. Ends that are not written are not given here. Peptide text beside a SMILES is read from it. Tyr(Me) = O-methyl-Tyr, COc1ccc(C[C@H](N[*:1])C(=O)[*:2])cc1; Phe(4-NO2) = N[C@@H](Cc1ccc([N+](=O)[O-])cc1)C(=O)O; Bta = N[C@@H](Cc1csc2ccccc12)C(=O)O; Phg = N[C@H](C(=O)O)c1ccccc1; Nle = CCCC[C@H](N)C(=O)O; Orn = NCCC[C@H](N)C(=O)O; Nva = CCC[C@H](N)C(=O)O

How the values were obtained:
HLA-A*0201 = HLA-A*0201 (Homo sapiens, UniProt P04439, D140Y/D185E/D98H/E176V/E277Q/G131W/G231S/I119V/I121R/I166T/I218V/L300P/L318F/N151K/N90K/P208A/P217A/Q86G/Q94H/R138H/R169H/T345S); assay: Peptide binding using T2 cells; settings: half maximal binding of wild-type peptide relative to analog;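 note: Read-out is peptide-induced stabilization of HLA-A*0201 on the cell surface, reflecting mainly Kon at limiting peptide levels and both Kon and Koff at saturating levels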
Source text: Thus, at limiting concentrations of peptide, it is a measurement of Kon mostly and at saturation levels of peptide it is a measurement of both Kon and Koff.
Thus, at limiting concentrations of peptide, this is a measurement of Kon mostly and at saturation levels of peptide that is a measurement of both Kon and Koff.

[1] = system: T cell lines against natural epitope SSX-241-49; assay: Cross-reactivity and functional avidity: IFN-gamma production by T cell lines raised against natural SSX-2 41-49; format: cell-based, HHD transgenic mice; settings: T cells raised to native peptide tested on analogs; footnote * and unit not given;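 note: analogs presented ex vivo by competent APCs to T cells specific for the non-mutated epitope, scored by lowest activating concentration, peak cytokine effect and concentration at that peak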
HLA-A*0201 on T2 cells [2] = target: T1, HLA-A*0201 on T2 cells (human); assay: T2 cells, wild-type/analog half-maximal binding
T1 construct: whole, on cells; Class I MHC on the surface of T2 cells, detected with a fluorescent anti-A2 antibody; beta2-microglobulin is not mentioned for this assay; also called MHC class I (A2 allele)

HLA-A*0201 on T2 cells [3] = target: T1, HLA-A*0201 on T2 cells; assay: T2 cells, wild-type/analog half-maximal binding; remark: listed apart in the source
HLA-A*0201 on T2 cells [4] = target: T1, HLA-A*0201 on T2 cells; assay: T2 cells, wild-type/analog half-maximal binding; remark: listed apart in the source
[5] = target: T2, HLA-A*0201 class I monomer of the iTopia Epitope Discovery System; assay: iTopia affinity assay
T2 construct: also called A0201 restricted MHC Class 1 molecules; MHC monomer

Relative affinity (1/RA) (HLA-A*0201): 1.7
Molecule: CC[C@H](C)[C@H](NC(=O)[C@H](CCCCN)NC(=O)[C@H](CCC(=O)O)NC(=O)[C@H](CO)NC(=O)[C@@H](NC(=O)[C@@H](N)Cc1ccccc1)C(C)C)C(=O)N[C@@H](Cc1ccccc1)C(=O)N[C@@H](Cc1ccccc1)C(=O)N[C@H](C(=O)O)C(C)C [SSX2 41-49 (K41F, A42V, Y48F)]
Cross-reactivity and fct avidity (native to analogs)* [1]: 10

Relative affinity (1/RA) (HLA-A*0201): 3.0
Molecule: WVSEKIFYV-OH [SSX2 41-49 (K41W, A42V)]
Cross-reactivity and fct avidity (native to analogs)* [1]: 1

Relative affinity (1/RA) (HLA-A*0201): 2.5
Molecule: CC[C@H](C)[C@H](NC(=O)[C@H](CCCCN)NC(=O)[C@H](CCC(=O)O)NC(=O)[C@H](CO)NC(=O)[C@@H](NC(=O)[C@@H](N)Cc1ccccc1)C(C)C)C(=O)N[C@@H](Cc1ccccc1)C(=O)N[C@H](C(=O)N[C@H](C(=O)O)C(C)C)c1ccccc1 [SSX2 41-49 (K41F, A42V, Y48Phg), FVSEKIF(Phg)V] (H-FVSEKIF[Phg]V-OH)
Cross-reactivity and fct avidity (native to analogs)* [1]: >10

Relative affinity (1/RA) (HLA-A*0201): 2.4
Molecule: CCC[C@H](NC(=O)[C@H](CCCCN)NC(=O)[C@H](CCC(=O)O)NC(=O)[C@H](CO)NC(=O)[C@@H](NC(=O)[C@@H](N)Cc1ccccc1)C(C)C)C(=O)N[C@@H](Cc1ccccc1)C(=O)N[C@@H](Cc1ccc(O)cc1)C(=O)N[C@H](C(=O)O)C(C)C [SSX2 41-49 (K41F, A42V, I46Nva), FVSEK(Nva)FYV] (H-FVSEK[Nva]FYV-OH)
Cross-reactivity and fct avidity (native to analogs)* [1]: 1

Relative affinity (1/RA) (HLA-A*0201): 0.8
Molecule: FVSEKIFYM [SSX2 41-49 (K41F, A42V, V49M)]
Cross-reactivity and fct avidity (native to analogs)* [1]: >10

Relative affinity (1/RA) (HLA-A*0201): 2.9
Molecule: WMSEKIFYV-OH [SSX2 41-49 (K41W, A42M)]
Cross-reactivity and fct avidity (native to analogs)* [1]: 1

Relative affinity (1/RA) (HLA-A*0201 on T2 cells [3]): 3.8 1/RA
Molecule: FVSEKIFTV [SSX2 41-49 (K41F, A42V, Y48T)]

Relative affinity (1/RA) (HLA-A*0201 on T2 cells [3]): 3.9 1/RA
Molecule: FVSEKIFSV [SSX2 41-49 (K41F, A42V, Y48S)]

Relative affinity (1/RA) (HLA-A*0201 on T2 cells [3]): 1.7 1/RA
Molecule: FVSEKIFFV [SSX2 41-49 (K41F, A42V, Y48F)]

Relative affinity (1/RA) (HLA-A*0201 on T2 cells [4]): 2.9 1/RA
Molecule: WMSEKIFYV [SSX2 41-49 (K41W, A42M)]

Relative affinity (1/RA) (HLA-A*0201 on T2 cells [4]): 3 1/RA
Molecule: WVSEKIFYV [SSX2 41-49 (K41W, A42V)]

Relative affinity (1/RA) (HLA-A*0201 on T2 cells [4]): 0.6 1/RA
Molecule: YMSEKIFYV [SSX2 41-49 (K41Y, A42M)]

Relative affinity (1/RA) (HLA-A*0201 on T2 cells [2]): 1.7 1/RA
Molecule: YASEKIFYV [SSX2 41-49 (K41Y)]

Relative affinity (1/RA) (HLA-A*0201 on T2 cells [4]): 1.2 1/RA
Molecule: YLSEKIFYV [SSX2 41-49 (K41Y, A42L)]

Relative affinity (1/RA) (HLA-A*0201 on T2 cells [4]): 3.3 1/RA
Molecule: WLSEKIFYV [SSX2 41-49 (K41W, A42L)]

binding result [5]: binds
Molecule: FMLQHLIG[Nle] [PRAME425-433 analog with Phe at P1, Met at P2 and Nle at PΩ]

binding result [5]: binds
Molecule: TMLQHLIG[Nle] [PRAME425-433 S425T L426M L433Nle analog]

Relative affinity (1/RA) (HLA-A*0201 on T2 cells [3]): 2.4 1/RA
Molecule: FVSEK[Nva]FYV (also called FVSEK(Nva)FYV) [SSX2 41-49 (K41F, A42V, I46Nva)]

Relative affinity (1/RA) (HLA-A*0201 on T2 cells [3]): 1.4 1/RA
Molecule: FVSEKIFXV (P8 = Phe(4-F), 4-fluorophenylalanine, also called FVSEKIF(Phe-4F)V) [SSX2 41-49 (K41F, A42V, Y48(Phe-4F))]

Relative affinity (1/RA) (HLA-A*0201 on T2 cells [3]): 2.5 1/RA
Molecule: FVSEKIF[Phg]V (also called FVSEKIF(Phg)V) [SSX2 41-49 (K41F, A42V, Y48Phg)]

Relative affinity (1/RA) (HLA-A*0201 on T2 cells [3]): 1.1 1/RA
Molecule: FVSEK[Nle]FYV (also called FVSEK(Nle)FYV) [SSX2 41-49 (K41F, A42V, I46Nle)]

The remaining lines, values behind:

Molecule: CCC[C@H](NC(=O)[C@H](CO)NC(=O)[C@@H](NC(=O)[C@@H](N)Cc1ccccc1)C(C)C)C(=O)N[C@@H](CCCCN)C(=O)N[C@H](C(=O)N[C@@H](Cc1ccccc1)C(=O)N[C@@H](Cc1ccc(O)cc1)C(=O)N[C@H](C(=O)O)C(C)C)[C@@H](C)CC [SSX2 41-49 (K41F, A42V, E44Nva), FVS(Nva)KIFYV] (H-FVS[Nva]KIFYV-OH)
Relative affinity (1/RA) (HLA-A*0201): 3.9
Cross-reactivity and fct avidity (native to analogs)* [1]: 3

Molecule: FVSQKIFYV [SSX2 41-49 (K41F, A42V, E44Q)]
Relative affinity (1/RA) (HLA-A*0201): 0.4
Cross-reactivity and fct avidity (native to analogs)* [1]: 10

Molecule: KISEKIFYV [SSX2 41-49 (A42I)]
Relative affinity (1/RA) (HLA-A*0201): 1.7
Cross-reactivity and fct avidity (native to analogs)* [1]: 3

Molecule: FVSEKIFYV [SSX2 41-49 (K41F, A42V)]
Relative affinity (1/RA) (HLA-A*0201): 3.1
Cross-reactivity and fct avidity (native to analogs)* [1]: 0.1

Molecule: FVSEKLFSA
Relative affinity (1/RA) (HLA-A*0201): 2.4
Cross-reactivity and fct avidity (native to analogs)* [1]: >10

Molecule: FISEKIFYV [SSX2 41-49 (K41F, A42I)]
Relative affinity (1/RA) (HLA-A*0201): 2.7
Cross-reactivity and fct avidity (native to analogs)* [1]: 0.3

Molecule: CC[C@H](C)[C@H](NC(=O)[C@H](CCCCN)NC(=O)[C@H](CCC(=O)O)NC(=O)[C@H](CO)NC(=O)[C@H](C)NC(=O)[C@@H](N)Cc1csc2ccccc12)C(=O)N[C@@H](Cc1ccccc1)C(=O)N[C@@H](Cc1ccc(O)cc1)C(=O)N[C@H](C(=O)O)C(C)C [SSX2 41-49 (K41(b-(3-benzothienyl)Ala))] (H-[Bta]ASEKIFYV-OH)
Relative affinity (1/RA) (HLA-A*0201): 0.6
Cross-reactivity and fct avidity (native to analogs)* [1]: 10

Molecule: CC[C@H](C)[C@H](NC(=O)[C@H](CCCCN)NC(=O)[C@H](CCC(=O)O)NC(=O)[C@H](CO)NC(=O)[C@H](C)NC(=O)[C@@H](N)c1ccccc1)C(=O)N[C@@H](Cc1ccccc1)C(=O)N[C@@H](Cc1ccc(O)cc1)C(=O)N[C@H](C(=O)O)C(C)C [SSX2 41-49 (K41(Phg))] (H-[Phg]ASEKIFYV-OH)
Relative affinity (1/RA) (HLA-A*0201): 2.5
Cross-reactivity and fct avidity (native to analogs)* [1]: 0.1

Molecule: [Bta]ASEKIFYV [SSX2 41-49 (K41(b-(3-benzothienyl)Ala))]
Relative affinity (1/RA) (HLA-A*0201 on T2 cells [2]): 0.6 1/RA

Molecule: FVS[Nle]KIFYV (also called FVS(Nle)KIFYV) [SSX2 41-49 (K41F, A42V, E44Nle)]
Relative affinity (1/RA) (HLA-A*0201 on T2 cells [3]): 1.1 1/RA

Molecule: FVSEKIFYV [SSX2 41-49 (K41F, A42V)]
Relative affinity (1/RA) (HLA-A*0201 on T2 cells [4]): 3.1 1/RA

Molecule: FVSQKIFYV [SSX2 41-49 (K41F, A42V, E44Q)]
Relative affinity (1/RA) (HLA-A*0201 on T2 cells [3]): 0.4 1/RA

Molecule: FVSEKLFSA [SSX2 41-49 (K41F, A42V, I46L, Y48S, V49A)]
Relative affinity (1/RA) (HLA-A*0201 on T2 cells [3]): 2.4 1/RA

Molecule: FVSEKLFYV [SSX2 41-49 (K41F, A42V, I46L)]
Relative affinity (1/RA) (HLA-A*0201 on T2 cells [3]): 1.9 1/RA

Molecule: FVSEKLFTV [SSX2 41-49 (K41F, A42V, I46L, Y48T)]
Relative affinity (1/RA) (HLA-A*0201 on T2 cells [3]): 2.6 1/RA

Molecule: FISEKIFYV [SSX2 41-49 (K41F, A42I)]
Relative affinity (1/RA) (HLA-A*0201 on T2 cells [4]): 2.7 1/RA

Molecule: FVSDKIFYV [SSX2 41-49 (K41F, A42V, E44D)]
Relative affinity (1/RA) (HLA-A*0201 on T2 cells [3]): 1.1 1/RA

Molecule: FASEKIFYV [SSX2 41-49 (K41F)]
Relative affinity (1/RA) (HLA-A*0201 on T2 cells [2]): 1.5 1/RA

Molecule: FVS[Nva]KIFYV (also called FVS(Nva)KIFYV) [SSX2 41-49 (K41F, A42V, E44Nva)]
Relative affinity (1/RA) (HLA-A*0201 on T2 cells [3]): 3.9 1/RA

Molecule: FLLQHLIG[Nle] (the second is probably S425T L433Nle) [PRAME425-433 S425F L433Nle analog]
fold reduction of ED50 against the native peptide [5]: > 4 fold

Molecule: [Phg]ASEKIFYV [SSX2 41-49 (K41(Phg))]
Relative affinity (1/RA) (HLA-A*0201 on T2 cells [2]): 2.5 1/RA

Molecule: [Tyr(Me)]ASEKIFYV [SSX2 41-49 (K41(O-methyl Tyr))]
Relative affinity (1/RA) (HLA-A*0201 on T2 cells [2]): 0.8 1/RA

Molecule: [Orn]LLQHLIGL [PRAME425-433 analog with Orn at P1]
fold difference of affinity (ED50) against the native peptide [5]: ≤ 3 fold

Molecule: SILQHLIGL [PRAME425-433 analog with Ile at P2]
fold reduction of affinity (ED50) against the native peptide [5]: ≤ 3 fold

Molecule: TLLQHLIGL [PRAME425-433 analog with Thr at P1]
fold difference of affinity (ED50) against the native peptide [5]: ≤ 3 fold

Molecule: YLLQHLIGL [PRAME425-433 analog with Tyr at P1]
fold difference of affinity (ED50) against the native peptide [5]: ≤ 3 fold

Molecule: FLLQHLIGL (also called Phe P1 analog; S425F) [PRAME425-433 analog with Phe at P1]
fold difference of affinity (ED50) against the native peptide [5]: ≤ 3 fold

B1: SSX2 41-49 (K41(Phe-4NO2)) (peptide)
peptide: [Phe(4-NO2)]ASEKIFYV
notes: also called para-nitrophenylalanine analog
Relative affinity (1/RA) (HLA-A*0201 on T2 cells [2]): 1.1 1/RA

Molecule: S[Nva]LQHLIGL [PRAME425-433 analog with Nva at P2]
fold reduction of affinity (ED50) against the native peptide [5]: ≤ 3 fold

Molecule: XLLQHLIGL (P1 = Hse (homoserine)) [PRAME425-433 analog with Hse at P1]
fold difference of affinity (ED50) against the native peptide [5]: ≤ 3 fold
